Results on two substances are retold here after publication doi:10.1101/2021.06.06.446989.

The target of test [1] is RXFP2F11, chimera of the LDLa and GDxxGWxxxF motif (Met1-Phe51) of RXFP2 and the remainder of RXFP1 (human). Briefly: saturation binding of Europium-labelled ligand on cells.
Test [2] has as its target RXFP1, wild-type receptor expressed on HEK293T cells (human) (UniProt Q9HBX9). The test is described as above.
The target of test [3] is RXFP1(1-72), RXFP1 LDLa module and its 32-residue linker (human). The experiment in a line: NMR titration.
Test [4] addresses RXFP2(1-65)-ExLink2 (human). The experiment in a line: NMR titration.
The target of the next test is W46A-RXFP1(1-72) (human). Briefly: NMR titration.
The target of test [5] is RXFP1(1-72), RXFP1 LDLa module and its 32-residue linker (human). Briefly: NMR titration. This is another data set of the same source.
In the next test the target is D42A-RXFP1(1-72) (human). The experiment in a line: NMR titration.
For test [6], the target named is RXFP2(1-65)-ExLink2 (human). The experiment in a line: NMR titration. This is another data set of the same source.
Test [7] deals with RXFP2(1-65), RXFP2 LDLa module and its 26-residue linker (human). Briefly: NMR titration.
Test [8] addresses RXFP1(1-72)-L7K/K17A (human). Briefly: 15N-CPMG relaxation dispersion NMR.
Test [9] addresses RXFP1(1-72), RXFP1 LDLa module and its 32-residue linker (human). Briefly: 15N-CPMG relaxation dispersion NMR.

Where two headings read alike, the source gives them in different places.

UniProt Q9HBX9, sequence (Q9HBX9 whole entry): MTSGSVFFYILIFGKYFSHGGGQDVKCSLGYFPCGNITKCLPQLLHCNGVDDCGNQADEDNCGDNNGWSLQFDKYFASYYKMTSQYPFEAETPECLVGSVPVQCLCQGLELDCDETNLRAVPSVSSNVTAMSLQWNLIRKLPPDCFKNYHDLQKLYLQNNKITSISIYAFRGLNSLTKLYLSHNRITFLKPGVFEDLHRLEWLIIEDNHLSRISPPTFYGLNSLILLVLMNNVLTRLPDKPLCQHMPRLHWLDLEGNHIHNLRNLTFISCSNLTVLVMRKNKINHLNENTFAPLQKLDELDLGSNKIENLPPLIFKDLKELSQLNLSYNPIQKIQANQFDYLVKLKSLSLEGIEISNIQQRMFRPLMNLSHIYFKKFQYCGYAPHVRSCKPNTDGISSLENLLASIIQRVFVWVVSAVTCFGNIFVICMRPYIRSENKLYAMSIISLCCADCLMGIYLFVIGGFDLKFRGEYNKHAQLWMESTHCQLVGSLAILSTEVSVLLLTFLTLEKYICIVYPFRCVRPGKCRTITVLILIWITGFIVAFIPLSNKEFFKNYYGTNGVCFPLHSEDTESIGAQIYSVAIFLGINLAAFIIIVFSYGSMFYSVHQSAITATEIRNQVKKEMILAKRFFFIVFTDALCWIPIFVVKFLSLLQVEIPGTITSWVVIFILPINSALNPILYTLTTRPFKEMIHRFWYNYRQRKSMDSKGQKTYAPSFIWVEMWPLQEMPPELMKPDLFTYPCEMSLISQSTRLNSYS

The Kd is the equilibrium constant for the complex coming apart. Read a high Kd as weaker binding. Take “H2 relaxin, native recombinant (serelaxin), Europium-labelled for the binding assay (ligand)”: the Kd in test [1] is more than 0.02 µM; in test [2] it was 0.0006 µM.

As for “amidated H2 relaxin (both the A and B-chain C-termini amidated) (ligand)”, the Kd came to 442 µM in test [3]; 482 µM in [4]; 85 µM in [5]; 171 µM in test [6]; 205 µM in test [7]; 30 µM in [8]. In test [9], this substance had a Kd of 25 µM. Besides, the fold decrease in affinity against wild-type RXFP1(1-72) with W46A-RXFP1(1-72) (human) and in the test with D42A-RXFP1(1-72) (human) was 4 fold each time.
